This passage reports Kd, fold decrease in STAT5 phosphorylation in NK cells and CD8+ T cells (FACS); potency relative to Proleukin and EC50 results from patent publication US20170088631A1.

In experiment [1] the target is Carcinoembryonic Antigen (CEA) (human) (UniProt P06731). As to the kind of experiment: SPR at 25 C; IL-2 qm.
The target is the same in experiment [2]. As to the kind of experiment: SPR at 25 C; IL-2 wt.
For experiment [3], the target named is human Fibroblast Activation Protein (FAP), recombinant (human) (UniProt Q12884). The experiment can be described thus: SPR (Biacore), His-tagged human FAP captured by anti-His antibody, construct as analyte, 25 C; apparent bivalent affinity (avidity), 1:1 fit.
In experiment [4] the target is IL-2R βγ heterodimer on cells (NK92 cells; human NK cells and CD8+ T cells) (human) (UniProt P14784). The experiment can be described thus: cell-based or functional assay.
Sequence of IL-2R βγ heterodimer on cells (NK92 cells; human NK cells and CD8+ T cells) (human) (P14784 27-551, chain 1 of 2): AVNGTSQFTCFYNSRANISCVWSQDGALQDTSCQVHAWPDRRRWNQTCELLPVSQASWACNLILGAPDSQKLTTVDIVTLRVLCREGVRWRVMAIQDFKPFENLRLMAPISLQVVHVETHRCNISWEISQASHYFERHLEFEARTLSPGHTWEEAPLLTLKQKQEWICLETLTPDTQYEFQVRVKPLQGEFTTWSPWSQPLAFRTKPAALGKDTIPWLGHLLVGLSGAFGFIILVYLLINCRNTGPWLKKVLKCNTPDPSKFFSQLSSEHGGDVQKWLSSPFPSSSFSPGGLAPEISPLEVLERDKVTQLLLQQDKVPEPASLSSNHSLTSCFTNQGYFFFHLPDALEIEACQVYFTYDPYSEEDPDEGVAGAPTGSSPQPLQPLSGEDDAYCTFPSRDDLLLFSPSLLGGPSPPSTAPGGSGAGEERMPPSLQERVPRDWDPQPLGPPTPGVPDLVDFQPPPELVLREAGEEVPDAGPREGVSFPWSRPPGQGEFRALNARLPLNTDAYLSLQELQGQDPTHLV
Sequence of IL-2R βγ heterodimer on cells (NK92 cells; human NK cells and CD8+ T cells) (human) (P31785 23-369, chain 2 of 2, further chain): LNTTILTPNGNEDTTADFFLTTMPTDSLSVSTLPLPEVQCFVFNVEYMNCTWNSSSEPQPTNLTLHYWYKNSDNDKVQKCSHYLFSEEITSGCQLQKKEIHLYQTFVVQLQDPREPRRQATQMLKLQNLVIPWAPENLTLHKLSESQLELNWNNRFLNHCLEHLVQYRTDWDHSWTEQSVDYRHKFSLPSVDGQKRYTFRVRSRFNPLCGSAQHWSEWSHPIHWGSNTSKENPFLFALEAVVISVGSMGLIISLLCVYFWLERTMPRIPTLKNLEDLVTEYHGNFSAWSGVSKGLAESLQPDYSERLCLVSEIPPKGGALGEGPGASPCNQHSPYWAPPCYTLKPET
Experiment [5] has as its target human FAP expressed on stably transfected HEK 293 cells (human) (UniProt Q12884). As to the kind of experiment: flow cytometry on HEK293 cells stably transfected with human FAP, 4 C, FITC anti-human F(ab')2 detection. (A flow cytometer gives signals particle by particle.)
Experiment [6] concerns the target human IL-2R βγ heterodimer (IL-2R β subunit-Fc(hole) / IL-2R γ subunit-Fc(knob) fusion) (human). As to the kind of experiment: SPR, human IL-2R βγ heterodimer immobilized on the chip, construct as analyte, 25 C; apparent KD, 1:1 fit. (In SPR one partner is held on a chip, and binding of the other changes the refractive index at the surface.)

One may read the EC50 as the concentration at which the effect is half-maximal. High values mean weaker potency, low ones greater potency.

Sequence of Carcinoembryonic Antigen (CEA) (human) (P06731 35-685 limits assumed): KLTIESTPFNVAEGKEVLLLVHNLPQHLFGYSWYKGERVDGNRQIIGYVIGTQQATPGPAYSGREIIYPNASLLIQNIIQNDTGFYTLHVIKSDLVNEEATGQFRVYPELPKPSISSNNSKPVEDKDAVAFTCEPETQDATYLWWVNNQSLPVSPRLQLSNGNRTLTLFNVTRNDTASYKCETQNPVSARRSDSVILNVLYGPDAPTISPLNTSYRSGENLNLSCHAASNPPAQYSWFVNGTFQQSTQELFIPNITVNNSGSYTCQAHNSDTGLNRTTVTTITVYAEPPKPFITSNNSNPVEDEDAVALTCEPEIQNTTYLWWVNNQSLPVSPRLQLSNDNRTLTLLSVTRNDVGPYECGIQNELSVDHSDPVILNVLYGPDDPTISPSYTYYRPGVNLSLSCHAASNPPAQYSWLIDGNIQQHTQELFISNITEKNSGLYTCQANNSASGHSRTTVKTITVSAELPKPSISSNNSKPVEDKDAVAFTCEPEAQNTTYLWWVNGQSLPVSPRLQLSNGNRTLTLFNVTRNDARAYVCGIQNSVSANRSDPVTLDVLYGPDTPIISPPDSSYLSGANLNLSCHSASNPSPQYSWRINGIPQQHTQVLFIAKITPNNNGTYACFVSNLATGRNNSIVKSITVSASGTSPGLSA
Sequence of human IL-2R βγ heterodimer (IL-2R β subunit-Fc(hole) / IL-2R γ subunit-Fc(knob) fusion) (human) (beta, as listed by the source limits assumed, form in doubt, chain 1 of 2): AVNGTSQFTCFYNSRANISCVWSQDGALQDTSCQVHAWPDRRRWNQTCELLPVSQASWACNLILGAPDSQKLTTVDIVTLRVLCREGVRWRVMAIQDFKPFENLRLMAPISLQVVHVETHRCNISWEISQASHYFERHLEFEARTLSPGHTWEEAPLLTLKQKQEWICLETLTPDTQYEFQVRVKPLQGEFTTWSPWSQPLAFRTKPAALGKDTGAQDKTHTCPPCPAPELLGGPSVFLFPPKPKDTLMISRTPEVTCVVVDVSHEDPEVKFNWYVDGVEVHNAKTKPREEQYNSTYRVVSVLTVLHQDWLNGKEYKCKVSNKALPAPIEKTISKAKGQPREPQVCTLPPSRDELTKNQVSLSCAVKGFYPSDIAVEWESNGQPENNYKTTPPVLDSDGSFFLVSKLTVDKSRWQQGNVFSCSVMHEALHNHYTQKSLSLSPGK
Sequence of human IL-2R βγ heterodimer (IL-2R β subunit-Fc(hole) / IL-2R γ subunit-Fc(knob) fusion) (human) (gamma, as listed by the source limits assumed, form in doubt, chain 2 of 2): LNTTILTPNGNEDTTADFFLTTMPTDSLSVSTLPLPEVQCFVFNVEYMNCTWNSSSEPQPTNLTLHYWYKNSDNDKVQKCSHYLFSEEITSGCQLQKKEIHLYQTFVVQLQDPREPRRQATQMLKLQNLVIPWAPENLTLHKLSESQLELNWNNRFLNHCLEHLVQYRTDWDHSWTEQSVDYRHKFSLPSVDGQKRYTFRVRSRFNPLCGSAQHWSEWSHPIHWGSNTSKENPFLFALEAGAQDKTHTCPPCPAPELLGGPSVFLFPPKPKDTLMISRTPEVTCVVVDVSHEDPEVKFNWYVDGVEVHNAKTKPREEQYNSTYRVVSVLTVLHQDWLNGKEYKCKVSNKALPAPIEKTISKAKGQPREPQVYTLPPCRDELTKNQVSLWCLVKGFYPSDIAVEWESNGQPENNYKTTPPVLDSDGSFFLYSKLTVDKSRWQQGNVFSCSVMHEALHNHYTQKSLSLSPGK

Take “CEA-targeted CH1A1A 98/99 2F1-based IgG-IL-2 qm immunoconjugate”: in experiment [1], the Kd amounted to 0.4 nM.
Turning to “CEA-targeted CH1A1A 98/99 2F1-based IgG-IL-2 wt immunoconjugate”, the Kd in experiment [2] was 0.47 nM.
For “FAP-targeted 4G8-based IgG-IL-2 quadruple mutant (qm) immunoconjugate”, the figures for the Kd in experiment [3] and in experiment [6] were 0.1 nM and 5.9 nM, respectively. This substance registered a fold decrease in STAT5 phosphorylation in NK cells and CD8+ T cells (FACS); potency relative to Proleukin in experiment [4] of less than 10 fold. In addition, the EC50 in experiment [5] was determined as 0.9 nM.
